Reference: publication PMC6138639, “The ZZ-type zinc finger of ZZZ3 modulates the ATAC complex-mediated histone acetylation and gene activation” (Nature Communications, 2018)

Molecular target: ZZZ3 ZZ domain (aa 800–903), GST cleaved (human) (UniProt Q8IYH5)
Experiment: other fluorescence titration; tryptophan fluorescence; 1.0 µM ZZZ3 ZZ (aa 800–903) with increasing histone peptide; 25 °C; 20 mM Tris–HCl pH 7.2, 150 mM NaCl, 1 mM DTT; triplicates

ZZZ3 ZZ domain (aa 800–903), GST cleaved (human), sequence (Q8IYH5 800-903): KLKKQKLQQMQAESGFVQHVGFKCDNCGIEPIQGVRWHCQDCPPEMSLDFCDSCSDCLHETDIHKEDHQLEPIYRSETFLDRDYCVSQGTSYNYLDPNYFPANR

Row | Substance | Kd
1 | H3K4ac peptide of the tryptophan fluorescence and NMR titration experiments | 8.2 µM
2 | unmodified H3 peptide of the tryptophan fluorescence and NMR titration experiments | 29 µM
